We go through six molecules from US20140087995A1 (published 2014).

The target of test [1] is T1, human calcitonin receptor (human, UniProt P30988 25-474).
T1 construct: whole, on cells; Used as cell membranes; also called hCTR; hCT
T1 sequence (looked up): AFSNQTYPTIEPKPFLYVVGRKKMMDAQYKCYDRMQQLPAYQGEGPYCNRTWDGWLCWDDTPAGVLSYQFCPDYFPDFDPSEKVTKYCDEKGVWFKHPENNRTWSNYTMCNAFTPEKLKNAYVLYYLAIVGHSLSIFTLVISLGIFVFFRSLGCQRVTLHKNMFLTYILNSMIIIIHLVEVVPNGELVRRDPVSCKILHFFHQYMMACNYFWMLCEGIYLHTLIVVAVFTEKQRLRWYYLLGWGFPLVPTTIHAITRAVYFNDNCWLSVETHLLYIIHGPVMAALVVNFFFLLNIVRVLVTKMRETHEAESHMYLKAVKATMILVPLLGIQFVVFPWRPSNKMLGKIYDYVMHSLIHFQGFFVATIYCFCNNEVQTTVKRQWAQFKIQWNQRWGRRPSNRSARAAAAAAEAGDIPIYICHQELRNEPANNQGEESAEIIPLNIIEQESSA
Description: ratio of hCTR IC50 to hAmylin-R IC50 (reference: human amylin receptor). In outline: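 Membranes (35 ng/μL final) + SPA beads, 50 mM Hepes pH 7.4 buffer with 1 mM CaCl2, 5 mM MgCl₂, 0.1% OA, 0.02% Tween20; 120 min, 25° C, shaking; centrifuged, counted; IC₅₀ by one-site binding competition.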

Test [2] has as its target T1, human calcitonin receptor. Description: SPA competition on BHK cell membranes, 125I-calcitonin as radioligand (Assay VII). A digest of the protocol: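 BHK hCTR membranes 35 ng/μL + SPA beads 0.05 mg/well; buffer 50 mM Hepes pH 7.4, 1 mM CaCl2, 5 mM MgCl₂, 0.1% OA, 0.02% Tween20. 120 min, 25° C., shaking. Scintillation count; IC50 by one-site binding competition.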

Numbered stars: 1 amine (or outer) side, 2 acyl side, 3 side chain; on linkers, the order of the positions; unused ones are H or OH. Bridge positions count the residues as written; N and C are the ends. Side chains are listed from the residue outwards. Ends that are not written are not given here. * marks the point of attachment. C20 diacid = O=C(O)CCCCCCCCCCCCCCCCCCC(=O)*; γGlu = O=C(O)[C@H](CCC(=O)[*:2])N[*:1]; AEEA = NCCOCCOCC(=O)O

B1: N^ε1-[(4S)-4-carboxy-4-[[(4S)-4-carboxy-4-(19-carboxynonadecanoylamino)butanoyl]amino]butanoyl]-[Glu14,Arg17,Pro21,Pro27,Pro34,Glu35]-h-amylin (peptide)
peptide: K([γGlu-γGlu-C20 diacid])CNTATCATQRLAEFLRHSSPNFGAIPSSTNVGPETY-NH2
modifications: disulfide 2-7; N-terminus assumed
SMILES: CC[C@H](C)[C@H](NC(=O)[C@H](C)NC(=O)CNC(=O)[C@H](Cc1ccccc1)NC(=O)[C@H](CC(N)=O)NC(=O)[C@@H]1CCCN1C(=O)[C@H](CO)NC(=O)[C@H](CO)NC(=O)[C@H](Cc1c[nH]cn1)NC(=O)[C@H](CCCNC(=N)N)NC(=O)[C@H](CC(C)C)NC(=O)[C@H](Cc1ccccc1)NC(=O)[C@H](CCC(=O)O)NC(=O)[C@H](C)NC(=O)[C@H](CC(C)C)NC(=O)[C@H](CCCNC(=N)N)NC(=O)[C@H](CCC(N)=O)NC(=O)[C@@H](NC(=O)[C@H](C)NC(=O)[C@@H]1CSSC[C@H](NC(=O)[C@@H](N)CCCCNC(=O)CC[C@H](NC(=O)CC[C@H](NC(=O)CCCCCCCCCCCCCCCCCCC(=O)O)C(=O)O)C(=O)O)C(=O)N[C@@H](CC(N)=O)C(=O)N[C@@H]([C@@H](C)O)C(=O)N[C@@H](C)C(=O)N[C@@H]([C@@H](C)O)C(=O)N1)[C@@H](C)O)C(=O)N1CCC[C@H]1C(=O)N[C@@H](CO)C(=O)N[C@@H](CO)C(=O)N[C@H](C(=O)N[C@@H](CC(N)=O)C(=O)N[C@H](C(=O)NCC(=O)N1CCC[C@H]1C(=O)N[C@@H](CCC(=O)O)C(=O)N[C@H](C(=O)N[C@@H](Cc1ccc(O)cc1)C(N)=O)[C@@H](C)O)C(C)C)[C@@H](C)O
Consider B1, for which the “Ratio hCT/hAmylin binding” value in test [1] came out at 17.6. The IC50 in test [2] was determined as 2.13 nM.

B2: N^ε1-[(4S)-4-carboxy-4-[[(4S)-4-carboxy-4-(19-carboxynonadecanoylamino)butanoyl]amino]butanoyl]-[His14,Arg17,Pro21,Pro27]-h-amylin (peptide)
peptide: K([γGlu-γGlu-C20 diacid])CNTATCATQRLAHFLRHSSPNFGAIPSSTNVGSNTY-NH2
modifications: disulfide 2-7; N-terminus assumed
SMILES: CC[C@H](C)[C@H](NC(=O)[C@H](C)NC(=O)CNC(=O)[C@H](Cc1ccccc1)NC(=O)[C@H](CC(N)=O)NC(=O)[C@@H]1CCCN1C(=O)[C@H](CO)NC(=O)[C@H](CO)NC(=O)[C@H](Cc1c[nH]cn1)NC(=O)[C@H](CCCNC(=N)N)NC(=O)[C@H](CC(C)C)NC(=O)[C@H](Cc1ccccc1)NC(=O)[C@H](Cc1c[nH]cn1)NC(=O)[C@H](C)NC(=O)[C@H](CC(C)C)NC(=O)[C@H](CCCNC(=N)N)NC(=O)[C@H](CCC(N)=O)NC(=O)[C@@H](NC(=O)[C@H](C)NC(=O)[C@@H]1CSSC[C@H](NC(=O)[C@@H](N)CCCCNC(=O)CC[C@H](NC(=O)CC[C@H](NC(=O)CCCCCCCCCCCCCCCCCCC(=O)O)C(=O)O)C(=O)O)C(=O)N[C@@H](CC(N)=O)C(=O)N[C@@H]([C@@H](C)O)C(=O)N[C@@H](C)C(=O)N[C@@H]([C@@H](C)O)C(=O)N1)[C@@H](C)O)C(=O)N1CCC[C@H]1C(=O)N[C@@H](CO)C(=O)N[C@@H](CO)C(=O)N[C@H](C(=O)N[C@@H](CC(N)=O)C(=O)N[C@H](C(=O)NCC(=O)N[C@@H](CO)C(=O)N[C@@H](CC(N)=O)C(=O)N[C@H](C(=O)N[C@@H](Cc1ccc(O)cc1)C(N)=O)[C@@H](C)O)C(C)C)[C@@H](C)O
notes: also called compound 92
With B2, the “Ratio hCT/hAmylin binding” value in test [1] was 145. Moreover, the IC50 in test [2] stood at 26 nM.

B3: N^ε1N^ε1-[(4S)-4-carboxy-4-(19-carboxynonadecanoylamino)butanoyl]-[His14,Arg17,Pro21,Pro27,Pro34]-h-amylin (peptide)
peptide: K([γGlu-C20 diacid])CNTATCATQRLAHFLRHSSPNFGAIPSSTNVGPNTY-NH2
modifications: disulfide 2-7; N-terminus assumed
SMILES: CC[C@H](C)[C@H](NC(=O)[C@H](C)NC(=O)CNC(=O)[C@H](Cc1ccccc1)NC(=O)[C@H](CC(N)=O)NC(=O)[C@@H]1CCCN1C(=O)[C@H](CO)NC(=O)[C@H](CO)NC(=O)[C@H](Cc1c[nH]cn1)NC(=O)[C@H](CCCNC(=N)N)NC(=O)[C@H](CC(C)C)NC(=O)[C@H](Cc1ccccc1)NC(=O)[C@H](Cc1c[nH]cn1)NC(=O)[C@H](C)NC(=O)[C@H](CC(C)C)NC(=O)[C@H](CCCNC(=N)N)NC(=O)[C@H](CCC(N)=O)NC(=O)[C@@H](NC(=O)[C@H](C)NC(=O)[C@@H]1CSSC[C@H](NC(=O)[C@@H](N)CCCCNC(=O)CC[C@H](NC(=O)CCCCCCCCCCCCCCCCCCC(=O)O)C(=O)O)C(=O)N[C@@H](CC(N)=O)C(=O)N[C@@H]([C@@H](C)O)C(=O)N[C@@H](C)C(=O)N[C@@H]([C@@H](C)O)C(=O)N1)[C@@H](C)O)C(=O)N1CCC[C@H]1C(=O)N[C@@H](CO)C(=O)N[C@@H](CO)C(=O)N[C@H](C(=O)N[C@@H](CC(N)=O)C(=O)N[C@H](C(=O)NCC(=O)N1CCC[C@H]1C(=O)N[C@@H](CC(N)=O)C(=O)N[C@H](C(=O)N[C@@H](Cc1ccc(O)cc1)C(N)=O)[C@@H](C)O)C(C)C)[C@@H](C)O
notes: also called compound 67
Regarding B3, the “Ratio hCT/hAmylin binding” value in test [1] came out at 51.6. In test [2], the IC50 came to 4.63 nM.

B4: N^ε1-[(4S)-4-carboxy-4-(19-carboxynonadecanoylamino)butanoyl]-[Arg17,Pro21,Pro27,His34]-h-amylin (peptide)
peptide: K([γGlu-C20 diacid])CNTATCATQRLANFLRHSSPNFGAIPSSTNVGHNTY-NH2
modifications: disulfide 2-7; N-terminus assumed
SMILES: CC[C@H](C)[C@H](NC(=O)[C@H](C)NC(=O)CNC(=O)[C@H](Cc1ccccc1)NC(=O)[C@H](CC(N)=O)NC(=O)[C@@H]1CCCN1C(=O)[C@H](CO)NC(=O)[C@H](CO)NC(=O)[C@H](Cc1c[nH]cn1)NC(=O)[C@H](CCCNC(=N)N)NC(=O)[C@H](CC(C)C)NC(=O)[C@H](Cc1ccccc1)NC(=O)[C@H](CC(N)=O)NC(=O)[C@H](C)NC(=O)[C@H](CC(C)C)NC(=O)[C@H](CCCNC(=N)N)NC(=O)[C@H](CCC(N)=O)NC(=O)[C@@H](NC(=O)[C@H](C)NC(=O)[C@@H]1CSSC[C@H](NC(=O)[C@@H](N)CCCCNC(=O)CC[C@H](NC(=O)CCCCCCCCCCCCCCCCCCC(=O)O)C(=O)O)C(=O)N[C@@H](CC(N)=O)C(=O)N[C@@H]([C@@H](C)O)C(=O)N[C@@H](C)C(=O)N[C@@H]([C@@H](C)O)C(=O)N1)[C@@H](C)O)C(=O)N1CCC[C@H]1C(=O)N[C@@H](CO)C(=O)N[C@@H](CO)C(=O)N[C@H](C(=O)N[C@@H](CC(N)=O)C(=O)N[C@H](C(=O)NCC(=O)N[C@@H](Cc1c[nH]cn1)C(=O)N[C@@H](CC(N)=O)C(=O)N[C@H](C(=O)N[C@@H](Cc1ccc(O)cc1)C(N)=O)[C@@H](C)O)C(C)C)[C@@H](C)O
notes: also called compound 77
With B4, the “Ratio hCT/hAmylin binding” value in test [1] is 118. Also, the IC50 in test [2] worked out at 50.7 nM.

B5: N^ε1-[2-[2-[2-(19-carboxynonadecanoylamino)ethoxy]ethoxy]acetyl]-[Arg17,Pro21,Pro27,His34]-h-amylin (peptide)
peptide: K([AEEA-C20 diacid])CNTATCATQRLANFLRHSSPNFGAIPSSTNVGHNTY-NH2
modifications: disulfide 2-7; N-terminus assumed
SMILES: CC[C@H](C)[C@H](NC(=O)[C@H](C)NC(=O)CNC(=O)[C@H](Cc1ccccc1)NC(=O)[C@H](CC(N)=O)NC(=O)[C@@H]1CCCN1C(=O)[C@H](CO)NC(=O)[C@H](CO)NC(=O)[C@H](Cc1c[nH]cn1)NC(=O)[C@H](CCCNC(=N)N)NC(=O)[C@H](CC(C)C)NC(=O)[C@H](Cc1ccccc1)NC(=O)[C@H](CC(N)=O)NC(=O)[C@H](C)NC(=O)[C@H](CC(C)C)NC(=O)[C@H](CCCNC(=N)N)NC(=O)[C@H](CCC(N)=O)NC(=O)[C@@H](NC(=O)[C@H](C)NC(=O)[C@@H]1CSSC[C@H](NC(=O)[C@@H](N)CCCCNC(=O)COCCOCCNC(=O)CCCCCCCCCCCCCCCCCCC(=O)O)C(=O)N[C@@H](CC(N)=O)C(=O)N[C@@H]([C@@H](C)O)C(=O)N[C@@H](C)C(=O)N[C@@H]([C@@H](C)O)C(=O)N1)[C@@H](C)O)C(=O)N1CCC[C@H]1C(=O)N[C@@H](CO)C(=O)N[C@@H](CO)C(=O)N[C@H](C(=O)N[C@@H](CC(N)=O)C(=O)N[C@H](C(=O)NCC(=O)N[C@@H](Cc1c[nH]cn1)C(=O)N[C@@H](CC(N)=O)C(=O)N[C@H](C(=O)N[C@@H](Cc1ccc(O)cc1)C(N)=O)[C@@H](C)O)C(C)C)[C@@H](C)O
notes: also called compound 91
With B5, the “Ratio hCT/hAmylin binding” value in test [1] was 101. Moreover, the IC50 in test [2] was 12 nM.

B6: N^ε1-[2-[2-[2-[[2-[2-[2-[[(4S)-4-carboxy-4-(19-carboxynonadecanoylamino)butanoyl]amino]ethoxy]ethoxy]acetyl]amino]ethoxy]ethoxy]acetyl]-[Arg17,Pro21,Pro27,His34 … (peptide)
peptide: K([AEEA-AEEA-γGlu-C20 diacid])CNTATCATQRLANFLRHSSPNFGAIPSSTNVGHNTY-NH2
modifications: disulfide 2-7; N-terminus assumed
SMILES: CC[C@H](C)[C@H](NC(=O)[C@H](C)NC(=O)CNC(=O)[C@H](Cc1ccccc1)NC(=O)[C@H](CC(N)=O)NC(=O)[C@@H]1CCCN1C(=O)[C@H](CO)NC(=O)[C@H](CO)NC(=O)[C@H](Cc1c[nH]cn1)NC(=O)[C@H](CCCNC(=N)N)NC(=O)[C@H](CC(C)C)NC(=O)[C@H](Cc1ccccc1)NC(=O)[C@H](CC(N)=O)NC(=O)[C@H](C)NC(=O)[C@H](CC(C)C)NC(=O)[C@H](CCCNC(=N)N)NC(=O)[C@H](CCC(N)=O)NC(=O)[C@@H](NC(=O)[C@H](C)NC(=O)[C@@H]1CSSC[C@H](NC(=O)[C@@H](N)CCCCNC(=O)COCCOCCNC(=O)COCCOCCNC(=O)CC[C@H](NC(=O)CCCCCCCCCCCCCCCCCCC(=O)O)C(=O)O)C(=O)N[C@@H](CC(N)=O)C(=O)N[C@@H]([C@@H](C)O)C(=O)N[C@@H](C)C(=O)N[C@@H]([C@@H](C)O)C(=O)N1)[C@@H](C)O)C(=O)N1CCC[C@H]1C(=O)N[C@@H](CO)C(=O)N[C@@H](CO)C(=O)N[C@H](C(=O)N[C@@H](CC(N)=O)C(=O)N[C@H](C(=O)NCC(=O)N[C@@H](Cc1c[nH]cn1)C(=O)N[C@@H](CC(N)=O)C(=O)N[C@H](C(=O)N[C@@H](Cc1ccc(O)cc1)C(N)=O)[C@@H](C)O)C(C)C)[C@@H](C)O
notes: also called compound 97
As to B6, in test [1], the “Ratio hCT/hAmylin binding” value was 104. Moreover, the half-maximal inhibitory concentration (IC50) in test [2] came to 58.9 nM.

As a reminder, the IC50 is the concentration needed to halve the response being measured.
